Data as given in US11078246B2, “Peptides binding to Bfl-1” (Dana-Farber Cancer Institute, Inc., priority 2015, dated 2021).
Numbering of substitutions follows the chain as printed. Positions of bridges follow the written chain, without caps; N, C: chain ends. Non-standard residues stand in square brackets, D forms with d. No end group written: not given here. S5 = C=CCCC[C@](C)(N)C(=O)O

Legend:
Bfl-1 [1] = target: T1, Bfl-1 (Homo sapiens, UniProt Q16548); experiment: Bfl-1:Warhead SAHB conjugation assay; format: binding; conditions: conjugation with Bfl-1
T1 sequence (Q16548 1-175): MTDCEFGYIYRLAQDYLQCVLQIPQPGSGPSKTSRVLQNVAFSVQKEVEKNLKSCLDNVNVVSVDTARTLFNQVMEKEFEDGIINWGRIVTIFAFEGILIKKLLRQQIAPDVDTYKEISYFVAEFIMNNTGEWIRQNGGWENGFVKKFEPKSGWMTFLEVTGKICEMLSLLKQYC
Protocol: Proteins were serially diluted from 1 μM, then combined with FITC-labeled SAHB and polarization measured at 5 min on a microplate reader. We then calculated dissociation constants (KD) by nonlinear regression analysis of dose-response curves. […] Samples were then combined with loading dye, run on a 12% Bis-Tris SDS-PAGE, and stained with Coomassie. The same setup was used for all antiapoptotic proteins tested.

Bfl-1 [2] = target: T1, Bfl-1; experiment: Competitive binding assay after pre-forming the Bfl-1:NOXA disulfide bond; conditions: Bfl-1:NOXA disulfide bond pre-formed
Protocol: The functional impact of the Bfl-1:NOXA disulfide bond formation was evaluated using competitive binding assays and liposomal release assays.

BFL-1ΔC [3] = target: T2, BFL-1ΔC (Homo sapiens, UniProt Q16548); experiment: In vitro covalent conjugation assay (DTT reduction, GSSG oxidation); format: binding; conditions: DTT 10 mM then GSSG 12 mM; Coomassie, FITC scan
T2 construct: cDNA encoding BFL-1ΔC (aa 1-153) was cloned into the pET19b expression vector; made in house; host or cells: Escherichia coli BL21(DE3) LOBSTR
T2 sequence (Q16548 1-153): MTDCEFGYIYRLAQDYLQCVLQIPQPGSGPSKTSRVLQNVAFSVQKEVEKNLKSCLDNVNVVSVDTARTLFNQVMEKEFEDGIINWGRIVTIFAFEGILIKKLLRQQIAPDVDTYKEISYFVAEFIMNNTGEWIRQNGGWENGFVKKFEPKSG
Protocol: (§1) Biolayer Interferometry: Binding analyses of NOXA peptide interactions with BFL-1ΔC were performed on an Octet RED384 system (Fortebio, Menlo Park, Calif.) at 30° C. Super streptavidin (SSA) tips were prewetted in 1× kinetics buffer (PBS, pH 7.4, 0.01% BSA, 0.002% Tween-20) and then conjugated to NOXA SAHBs bearing an N-terminal biotin-PEG linker (10 μg/mL). Excess streptavidin was quenched by incubation with 2 μg/mL biocytin. The tips were then washed with kinetics buffer and soaked in a serial dilution of BFL-IAC for 10 min to measure association rate, followed by a 15 min incubation in kinetics buffer to measure dissociation rate. Dissociation constants were calculated using Octet Data Analysis version 9.0. […] After this incubation in a reducing environment, the mixture was diluted 5-fold into 50 mM Tris pH 8.0, 100 mM NaCl, 12 mM GSSG and incubated in the dark for an additional 30 min at RT. […] The gel was rinsed with water, subjected to FITC scan (Typhoon FLA 9500, GE Healthcare) and then Coomassie staining.

Bfl-1 [4] = target: T1, Bfl-1; experiment: Bfl-1:NOXA conjugation assay (disulfide bond, GSSG oxidation); format: binding; conditions: non-reducing SDS-PAGE
Protocol: Next, the impact of the Cys25 in NOXA was investigated. […] The distance between the sulfurs of the cysteine residues is 3.5 A according to the previously determined crystal structure of the bound proteins (PDB ID 3MQP). […] To examine the impact of Cys25 in NOXA on target interaction, we examined the binding of WT NOXA SAHB and NOXA C25S SAHB to Bfl-1 and to a variety of Bfl-1 cysteine mutants. In vitro conjugation assays were performed in order to verify the formation of the disulfide bond. Global reduction of the protein and the NOXA peptides, followed by the introduction of an oxidant such as GSSG led to production of a disulfide bond, shown as a 3 kDa shift on non-reducing SDS-PAGE (FIG. 4A). […] (FIG. 4A).
Fluorescence polarization assay: The solution-state equilibrium binding assay was used to determine binding affinities of the stapled peptides to the anti-apoptotic proteins. Proteins were serially diluted from 1 μM, then combined with FITC-labeled SAHB and polarization measured at 5 min on a microplate reader. We then calculated dissociation constants (KD) by nonlinear regression analysis of dose-response curves. […] Samples were then run on non-reducing SDS-PAGE, scanned for fluorescence, then stained with Coomassie. […] Plates were read following liposome lysis with 1% Triton X-100 to determine maximal release (F100). Percent ANTS/DPX release was calculated as […]. […]

Bfl-1 [5] = target: T1, Bfl-1; experiment: Liposomal release assay (Bfl-1 inhibition of BAX activation); format: biochemical
Protocol: Fluorescence polarization assay: The solution-state equilibrium binding assay was used to determine binding affinities of the stapled peptides to the anti-apoptotic proteins. Proteins were serially diluted from 1 μM, then combined with FITC-labeled SAHB and polarization measured at 5 min on a microplate reader. We then calculated dissociation constants (KD) by nonlinear regression analysis of dose-response curves. Bfl-1:NOXA conjugation assay: The conjugation assay was developed to test for disulfide bond formation in a non-reducing environment, 3:1 FITC-stapled peptide:protein molar ratio was combined in the presence of DTT, then diluted and incubated with 1.2 molar excess GSSG. Samples were then run on non-reducing SDS-PAGE, scanned for fluorescence, then stained with Coomassie. […] ANTS release and dequenching due to DPX dissociation (F) was measured over a period of 120 min with an M1000 Infinite plate reader (Tecan) with excitation and emission wavelengths of 355 nm and 520 nm, respectively. Plates were read following liposome lysis with 1% Triton X-100 to determine maximal release (F100). Percent ANTS/DPX release was calculated as […]. […]

BFL-1ΔC [6] = target: T3, BFL-1ΔC (Homo sapiens, UniProt Q16548, C19S/C4S); experiment: In vitro covalent conjugation assay (DTT reduction, GSSG oxidation); format: binding; conditions: Coomassie, FITC scan
T3 construct: cDNA encoding BFL-1ΔC (aa 1-153) was cloned into the pET19b expression vector; made in house; host or cells: Escherichia coli BL21(DE3) LOBSTR
T3 sequence (Q16548 1-153 C4S/C19S): T2 sequence (Q16548 1-153) with C4S, C19S
Protocol: as §1

BFL-1ΔC [7] = target: T4, BFL-1ΔC (Homo sapiens, UniProt Q16548, C19S/C4S/C55S); experiment: as above; format: binding; conditions: Coomassie, FITC scan
T4 construct: cDNA encoding BFL-1ΔC (aa 1-153) was cloned into the pET19b expression vector; made in house; host or cells: Escherichia coli BL21(DE3) LOBSTR
T4 sequence (Q16548 1-153 C4S/C19S/C55S): T2 sequence (Q16548 1-153) with C4S, C19S, C55S
Protocol: as §1

MCL-1ΔNΔC = target: T5, MCL-1ΔNΔC (Homo sapiens, UniProt Q07820); experiment: In vitro covalent conjugation assay (oxidizing conditions); format: binding
T5 construct: MCL-1ΔNΔC (aa 170-327) and BCL-XLΔC (aa 1-212) constructs were cloned into pGEX-4T-1; GST (N, cleaved yes); made in house; host or cells: Escherichia coli BL21(DE3)
T5 sequence (Q07820 170-327, stated change not applied): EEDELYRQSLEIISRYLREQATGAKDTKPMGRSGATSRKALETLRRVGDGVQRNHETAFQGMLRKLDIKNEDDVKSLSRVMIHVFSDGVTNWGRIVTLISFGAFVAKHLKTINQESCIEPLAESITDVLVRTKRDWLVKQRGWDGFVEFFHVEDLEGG

BCL-XLΔC = target: T6, BCL-XLΔC (Homo sapiens, UniProt Q07817); experiment: as above; format: binding
T6 construct: MCL-1ΔNΔC (aa 170-327) and BCL-XLΔC (aa 1-212) constructs were cloned into pGEX-4T-1; GST (N, cleaved yes); made in house; host or cells: Escherichia coli BL21(DE3)
T6 sequence (Q07817 1-212, stated change not applied): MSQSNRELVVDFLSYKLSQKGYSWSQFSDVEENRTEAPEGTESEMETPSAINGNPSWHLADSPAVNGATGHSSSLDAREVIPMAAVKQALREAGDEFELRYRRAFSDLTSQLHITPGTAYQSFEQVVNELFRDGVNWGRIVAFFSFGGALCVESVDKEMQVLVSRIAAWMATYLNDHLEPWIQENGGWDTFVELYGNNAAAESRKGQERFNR

GST-MCL-1ΔNΔC = target: T7, GST-MCL-1ΔNΔC (Homo sapiens, UniProt Q07820); experiment: Streptavidin pull-down from anti-apoptotic protein mixture; format: binding; conditions: 1:1:1:1 mixture, 1 μM each, biotinylated SAHB
T7 construct: MCL-1ΔNΔC (aa 170-327) and BCL-XLΔC (aa 1-212) constructs were cloned into pGEX-4T-1; made in house; host or cells: Escherichia coli BL21(DE3)
T7 sequence (Q07820 170-327, stated change not applied): as the sequence (Q07820 170-327, stated change not applied) above
Protocol: Streptavidin Pull-down: Recombinant His-BFL-1ΔC, BCL-XLΔC (tagless) and GST-MCL-1ΔNΔC (1 μM each) were combined and reduced with 3 mM DTT in PBS for 30 min at RT, and then incubated with 1 μM biotinylated SAHBA, SAHBA-3 or vehicle for 4 h at RT. The mixtures were then combined with PBS-washed high-capacity SA agarose (Thermo Fisher Pierce) and incubated with rotation for 2 h at RT. The beads were centrifuged at 3000 rpm, washed twice with NP-40 lysis buffer (1% NP40, 50 mM Tris pH 8.0, 100 mM NaCl, 2.5 mM MgCl2), once with PBS, and then bound protein eluted by boiling in 10% SDS containing 10 mg/mL biotin. Inputs (10%) and eluates were electrophoresed on a 12% Bis-Tris gel and then subjected to silver stain and imaging.

## O=C(O)[C@H]1CCCCN1 [D-homoproline]
Bfl-1 [1]
  covalent binding efficiency (comparative): less efficient

## O=C(O)[C@@H]1CCCCN1 [L-homoproline]
Bfl-1 [1]
  covalent binding efficiency (comparative): less efficient

## CN(C)C/C=C/C(=O)O [trans-4-dimethylaminocrotonic acid]
Bfl-1 [1]
  covalent binding efficiency (comparative): less efficient

## NOXA SAHBA C25S: stapled NOXA BH3 peptide with C25S substitution; SEQ ID NO:13 (AELEVESATQLR[S5]FGD[S5]LNFRQKLL; staple 13-17)
Bfl-1 [2]
  availability of the Bfl-1 binding pocket to another FITC BH3 domain: abrogated these inhibitory effects
BFL-1ΔC [3]
  molecular weight shift (disulfide adduct) of wild-type BFL-1ΔC: not

## NOXA SAHBA: stapled NOXA BH3 (aa 19-43), i, i+4 hydrocarbon staple replacing R31 and K35, native C25; SEQ ID NO:9 (AELEVECATQLR[S5]FGD[S5]LNFRQKLL; staple 13-17)
Bfl-1 [4]
  covalent (disulfide) bond formation with Bfl-1, BCL-XL and MCL-1: only Bfl-1 forms a covalent bond
Bfl-1 [2]
  availability of the Bfl-1 binding pocket to another FITC BH3 domain: significantly decreased the availability of the Bfl-1 binding pocket
Bfl-1 [5]; Bfl-1:NOXA disulfide bond formed prior to assay
  anti-apoptotic effects of Bfl-1 on BAX: almost completely abrogates the effects of Bfl-1
Bfl-1 [5]; peptide added concurrently with Bfl-1
  anti-apoptotic effects of Bfl-1 on BAX: somewhat inhibited
BFL-1ΔC [3]
  molecular weight shift (disulfide adduct) of wild-type BFL-1ΔC: shift in the molecular weight
BFL-1ΔC [6]
  disulfide adduct with BFL-1ΔC C4S/C19S (only C55 present): molecular weight shift
BFL-1ΔC [7]
  disulfide adduct with BFL-1ΔC C4S/C19S/C55S (lacks C55): no adduct
MCL-1ΔNΔC
  molecular weight shift or FITC labeling of MCL-1ΔNΔC: no molecular weight shift or FITC labeling
BCL-XLΔC
  molecular weight shift or FITC labeling of BCL-XLΔC: no molecular weight shift or FITC labeling
GST-MCL-1ΔNΔC
  MCL-1ΔNΔC engagement in SA pull-down: prominent non-covalent capture
